Data: the PETadex activity labels (doi:10.1038/s41467-023-40233-w)

B1: unnamed (protein)
chain: MLSFLRSTGRPERRRASLPALLLFTAALVASGLTAAPAAQAADNPYQRGPDPTNASIEAATGPFAVGTQPIVGASGFGGGQIYYPTDTSQTYGAVVIVPGFISVWAQLNWLGPRLASQGFVVIGIETSTITDLPDPRGDQALAALDWATTRSPVASRIDRTRLAAAGWSMGGGGLRRAALQRPSLKAIVGMAPWNGERNWSAVTVPTLFFGGSSDAVASPNDHAKPFYNSITRAEKDYIELRNADHFFPTSANTTMAKYFISWLKRWVDNDTRYTQFLCPGPSTGLFAPVSASMNTCPF
B2: unnamed (protein)
chain: MLSFLRSTGRPERRRASLPALLLFTAALVASGLTAAPAAQAADNPYQRGPDPTNASIEAATGPFAVGTQPIVGASGFGGGQIYYPTDTSQTYGAVVIVPGFISVWAQLNWLGPRLASQGFVVIGIETSVITDLPDPRGDQALAALDWATTRSPVASRIDRTRLAAAGWSMGGGGLRRAALQRPSLKAIVGMAPWNTERNWSAVTVPTLFFGGSSDAVASPNDHAKPFYNSITRAEKDYIELRNADHFFPTSANTTMAKYFISWLKRWVDNDTRYTQFLCPGPSTGLFAPVSASMNTCPF
B3: unnamed (protein)
chain: MLSFLRSTGRPERRRASLPALLLFTAALVASGLTAAPAAQAADNPYQRGPDPTNASIEAATGPFAVGTQPIVGASGFGGGQIYYPTDTSQTYGAVVIVPGFISVWAQLNWLGPRLASQGFVVIGIETSVITDLPDPRGDQALAALDWATTRSPVASRIDRTRLAAAGWSMGGGGLRRAALQRPSLKAIVGMAPWNGERNWSATTVPTLFFGGSSDAVASPNDHAKPFYNSITRAEKDYIELRNADHFFPTSANTTMAKYFISWLKRWVDNDTRYTQFLCPGPSTGLFAPVSASMNTCPF
B4: unnamed (protein)
chain: MLSFLRSTGRPERRRASLPALLLFTAALVASGLTAAPAAQAADNPYQRGPDPTNASIEAATGPFAVGTQPIVGASGFGGGQIYYPTDTSQTYGAVVIVPGFISVWAQLNWLGPRLASQGFVVIGIETSVITDLPDPRGDQALAALDWATTRSPVASRIDRTRLAAAGWSMGGGGLRRAACQRPSLKAIVGMAPWNGERNWSCVTVPTLFFGGSSDAVASPNDHAKPFYNSITRAEKDYIELRNADHFFPTSANTTMAKYFISWLKRWVDNDTRYTQFLCPGPSTGLFAPVSASMNTCPF
B5: unnamed (protein)
chain: MLSFLRSTGRPERRRASLPALLLFTAALVASGLTAAPAAQAADNPYQRGPDPTNASIEAATGPFAVGTQPIVGASGFGGGQIYYPTDTSQTYGAVVIVPGFISVWAQLNWLGPRLASQGFVVIGIETSVITDLPDPRGDQALAALDWATTRSPVASRIDRTRLAAAGWSMGGGGLRRAALQRPSLKAIVGMAPWNGERNWSAVTVPTLFFGGSSDAVASPNDHAKPFYNSITRAEKDYIELRNADHFFPTSANTTMSKYFISWLKRWVDNDTRYTQFLCPGPSTGLFAPVSASMNTCPF
B6: unnamed (protein)
chain: MLSFLRSTGRPERRRASLPALLLFTAALVASGLTAAPAAQAADNPYQRGPDPTNASIEAATGPFAVGTQPIVGASGFGGGQIYYPTDTSQTYGAVVIVPGFISVWAQLAWLGPRLASQGFVVIGIETSTITDLPDPRGDQALAALDWATTRSPVRSRIDRTRLAAAGWSMGGGGLRRAACQRPSLKAIVGMAPWNTEKNWSCVTVPTLFFGGSSDAVASPNDHAKPFYNSITRAEKDYIELCNADHFFPTSANTTMAKYFISWLKRWVDNDTRYTQFLCPGPSTGLFAPVCASMNTCPF
B7: unnamed (protein)
chain: MLSFLRSTGRPERRRASLPALLLFTAALVASGLTAAPAAQAADNPYQRGPDPTNASIEAATGPFAVGTQPIVGASGFGGGQIYYPTDTSQTYGAVVIVPGFISVWAQLNWLGPRLASQGFVVIGIETSVITDLPDPRGDQALAALDWATTRSPVASRIDRTRLAAAGHSMGGGGLRRAALQRPSLKAIVGMAPWNGERNWSAVTVPTLFFGGSSDAVASPNDHAKPFYNSITRAEKDYIELRNADHFFPTSANTTMAKYFISWLKRWVDNDTRYTQFLCPGPSTGLFAPVSASMNTCPF
B8: unnamed (protein)
chain: MLSFLRSTGRPERRRASLPALLLFTAALVASGLTAAPAAQAADNPYQRGPDPTNASIEAATGPFAVGTQPIVGASGFGGGQIYYPTDTSQTYGAVVIVPGFISVWAQLNWLGPRLASQGFVVIGIETSVITDLPDPRGDQALAALDWATTASPVASRIDRTRLAAAGWSMGGGGLRRAALQRPSLKAIVGMAPWNGERNWSAVTVPTLFFGGSSDAVASPNDHAKPFYNSITRAEKDYIELRNADHFFPTSANTTMAKYFISWLKRWVDNDTRYTQFLCPGPSTGLFAPVSASMNTCPF

Substrate: pcPET (post-consumer)
Assay: Proxy for plastic degradation [Released monomer concentration (HPLC/LC-MS) (TPA+MHET+BHET)]
Conditions: pH 9

| Protein | Proxy for plastic degradation (40 °C, 24 h) | Proxy for plastic degradation (60 °C, 6 h) |
| --- | --- | --- |
| B1 | 990 µM | – |
| B2 | 840 µM | – |
| B3 | 170 µM | – |
| B4 | 850 µM | – |
| B5 | 530 µM | – |
| B6 | 1370 µM | 1860 µM |
| B7 | 220 µM | – |
| B8 | 600 µM | – |
